Target: ZZ-CBM3 (Staphylococcus aureus)
Assay: pull-down; ZZ-CBM3 pre-anchored on discs of cellulose hydrogel (8Cell, 14Cell, 18Cell; 5 mm, 30 mg); 100 uL of IgG (0.312-10.0 uM) in TST buffer incubated 18 h at 37 °C; free IgG in the supernatant by absorbance at 280 nm (NanoDrop), bound IgG by mass balance; triplicates

- grafting yield relative to the initial amount contacted with the modified hydrogels: 26 to 89%
- stoichiometry N (mol IgG per mol ZZ-CBM3): 1
Substance: Human normal immunoglobulin (IgG) (antibody)

Reference: PMC8227779
